Data taken from paper PMC5397363 (Molecular microbiology, 2017).

System: fluorogenic substrate
Format: biochemical, Staphylococcus aureus
Conditions: 2.0 μM fluorogenic substrate; for measureable activity of mutant enzyme: enzyme 21.38 nM (dimer), n ≥ 3

Molecule	measureable activity of mutant enzyme	activity relative to the wild-type enzyme (enzyme 213.8 nM)
G21A (protein, left off: His6, N-terminal, cleaved | SUMO, N-terminal, cleaved) MITVDITVNDEGKVTDVIMDAHADHGEYGHDIVCAGASAVLFGSVNAIIGLTSERPDINYDDNGGHFHIRSVDTNNDEAQLILQTMLVSLQTIEEEYNENIRLNYK	none	–
S38A (protein, left off: His6, N-terminal, cleaved | SUMO, N-terminal, cleaved) MITVDITVNDEGKVTDVIMDGHADHGEYGHDIVCAGAAAVLFGSVNAIIGLTSERPDINYDDNGGHFHIRSVDTNNDEAQLILQTMLVSLQTIEEEYNENIRLNYK	none	2.1 ± 0.2%
H22A (protein, left off: His6, N-terminal, cleaved | SUMO, N-terminal, cleaved) MITVDITVNDEGKVTDVIMDGAADHGEYGHDIVCAGASAVLFGSVNAIIGLTSERPDINYDDNGGHFHIRSVDTNNDEAQLILQTMLVSLQTIEEEYNENIRLNYK	none	–
D31A (protein, left off: His6, N-terminal, cleaved | SUMO, N-terminal, cleaved) MITVDITVNDEGKVTDVIMDGHADHGEYGHAIVCAGASAVLFGSVNAIIGLTSERPDINYDDNGGHFHIRSVDTNNDEAQLILQTMLVSLQTIEEEYNENIRLNYK	none	–
